From patent US20180051081A1 (published 2018)

T1: mouse CD47 (mouse, UniProt Q61735 19-303)
T1 construct: whole, on cells; also called CD47 on mouse RBCs; CD47 on 4T1 cells
T1 sequence (looked up): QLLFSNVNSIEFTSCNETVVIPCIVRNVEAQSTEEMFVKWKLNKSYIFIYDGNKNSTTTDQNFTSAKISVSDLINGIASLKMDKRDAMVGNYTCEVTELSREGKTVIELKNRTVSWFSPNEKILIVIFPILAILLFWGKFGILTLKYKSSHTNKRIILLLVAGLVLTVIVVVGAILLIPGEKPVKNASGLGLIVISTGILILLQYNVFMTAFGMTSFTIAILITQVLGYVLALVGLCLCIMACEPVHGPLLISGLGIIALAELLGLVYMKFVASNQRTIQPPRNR

T2: rat CD47 (rat, UniProt P97829 19-303)
T2 construct: whole, on cells; also called CD47 on rat RBCs
T2 sequence (looked up): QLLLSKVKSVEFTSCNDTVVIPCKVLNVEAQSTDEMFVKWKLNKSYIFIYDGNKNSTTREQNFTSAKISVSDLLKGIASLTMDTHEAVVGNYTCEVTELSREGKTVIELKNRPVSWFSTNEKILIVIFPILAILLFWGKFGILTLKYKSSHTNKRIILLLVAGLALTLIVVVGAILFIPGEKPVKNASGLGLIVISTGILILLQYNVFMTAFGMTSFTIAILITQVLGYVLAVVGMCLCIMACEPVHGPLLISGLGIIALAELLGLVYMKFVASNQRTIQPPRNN

T3: dog CD47 (dog, UniProt A0A8I3PM61 19-310)
T3 construct: also called CD47 on dog RBCs
T3 sequence: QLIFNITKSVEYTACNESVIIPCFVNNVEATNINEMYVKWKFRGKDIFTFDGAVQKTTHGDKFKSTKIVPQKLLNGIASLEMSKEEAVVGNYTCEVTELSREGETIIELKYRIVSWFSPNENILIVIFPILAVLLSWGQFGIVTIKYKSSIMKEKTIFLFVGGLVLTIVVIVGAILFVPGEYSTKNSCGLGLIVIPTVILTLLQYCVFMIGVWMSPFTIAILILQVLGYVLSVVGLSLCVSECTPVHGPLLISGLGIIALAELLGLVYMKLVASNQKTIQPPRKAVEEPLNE

T4: pig CD47 (pig, UniProt Q9GKE8 19-303)
T4 construct: whole, on cells; also called CD47 on porcine RBCs
T4 sequence (looked up): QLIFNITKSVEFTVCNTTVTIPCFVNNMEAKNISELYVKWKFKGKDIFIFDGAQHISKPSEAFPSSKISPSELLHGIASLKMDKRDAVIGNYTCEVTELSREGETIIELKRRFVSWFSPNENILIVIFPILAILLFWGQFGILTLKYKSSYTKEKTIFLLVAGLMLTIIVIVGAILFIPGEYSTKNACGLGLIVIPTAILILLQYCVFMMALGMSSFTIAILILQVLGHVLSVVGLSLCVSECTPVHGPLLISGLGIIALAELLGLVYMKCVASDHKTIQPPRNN


Legend:
human CD47 = target: T5, human CD47 (human, UniProt Q08722 19-323); experiment: FACS, human RBCs, supernatant 10 ng/ml
T5 construct: whole, on cells; also called CD47 on human RBCs; CD47 on OV10 cells
T5 sequence (Q08722 19-323): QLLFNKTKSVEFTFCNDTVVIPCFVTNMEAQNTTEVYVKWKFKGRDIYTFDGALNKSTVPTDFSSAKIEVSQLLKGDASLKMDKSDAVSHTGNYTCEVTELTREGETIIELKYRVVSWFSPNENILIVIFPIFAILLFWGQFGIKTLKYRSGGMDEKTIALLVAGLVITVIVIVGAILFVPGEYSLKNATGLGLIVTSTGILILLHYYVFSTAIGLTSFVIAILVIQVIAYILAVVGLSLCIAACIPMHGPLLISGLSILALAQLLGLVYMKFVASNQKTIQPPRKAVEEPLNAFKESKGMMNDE
Protocol: (§1) RBCs are incubated for 60 minutes on ice with tissue culture supernatants containing the secreted humanized antibodies at a concentration of 10 ng/ml in a solution of phosphate buffered saline, pH 7.2, 2.5 mM EDTA (PBS+E), or with various concentrations of purified antibodies. Cells are then washed with cold PBS+E, and incubated for an additional hour on ice with FITC labeled donkey anti-human antibody (Jackson Immuno Research Labs, West Grove, Pa.; Catalogue #709-096-149) in PBS+E. Cells are then washed with PBS+E, and antibody binding is analyzed using a BD FACSAria Cell Sorter (Becton Dickinson) or a C6 Accuri Flow Cytometer (Becton Dickinson). Antibody binding is quantitated by comparison of mean fluorescence values relative to that of chimeric antibody >VxP037-01LC (SEQ ID NO:7))/>VxP037-01HC (SEQ ID NO:57). The mean fluorescence value for each antibody is divided by the mean fluorescence value for the chimeric antibody.

mouse CD47 = target: T1, mouse CD47; experiment: FACS, mouse RBCs, supernatant 10 ng/ml
Protocol: as §1

rat CD47 = target: T2, rat CD47; experiment: FACS, rat RBCs, supernatant 10 ng/ml
Protocol: as §1

dog CD47 = target: T3, dog CD47; experiment: FACS, dog RBCs, supernatant 10 ng/ml
Protocol: as §1

pig CD47 = target: T4, pig CD47; experiment: FACS, pig RBCs, supernatant 10 ng/ml
Protocol: as §1

mean fluorescence relative to chimera (human CD47)	mean fluorescence relative to chimera (mouse CD47)	mean fluorescence relative to chimera (rat CD47)	mean fluorescence relative to chimera (dog CD47)	mean fluorescence relative to chimera (pig CD47)	Binder
1	1.3	2.2	1.5	1.2	Clone 18 (pVxK7b-037-hum18-LC / pVxK7b-037-hum18-HC) (antibody, human IgG1, kappa, V domains shown) VH: EVQLVQSGAEVKKPGESLRISCKGSGYTFTNYYVFWIRQSPSRGLEWLGDINPVNGDTNFNEKFKNRVTITADKSTSTAYMELSSLRSEDTAVYYCARGGYTMDYWGQGTLVTVSS VL: EIVLTQSPATLSVSPGERATLSCRSSQSLVHSNGNTYLHWYQQKPGQAPRLLIYKVSYRFSGVPSRFSGSGSGTDFTFTISSLEAEDAATYYCSQNTHVPRTFGQGTKVEIKR
0.8	0.9	2.1	1.3	1.3	Clone 17 (pVxK7b-037-hum17-LC / pVxK7b-037-hum17-HC) (antibody, human IgG1, kappa) light: AIQLTQSPSSLSASVGDRVTITCRSSQSLVHSNGNTYLHWYQQKPGQAPRLLIYKVSYRFSGVPDRFSGSGSGTDFTLKISRVEAEDVGVYYCSQNTHVPRTFGQGTKVEIKRTVAAPSVFIFPPSDEQLKSGTASVVCLLNNFYPREAKVQWKVDNALQSGNSQESVTEQDSKDSTYSLSSTLTLSKADYEKHKVYACEVTHQGLSSPVTKSFNRGEC heavy: not shown
